Source: US20140287434
Changes are numbered by the printed parent chain. Numbers in names are those of the source.

What was measured:
[1] = molecular target: full-length wild-type Lck
[2] = molecular target: Itk SH3-SH2 (Itk 32), Q03526
[3] = molecular target: T1, biotinylated PLCγ1 SH2C-Peptide B fusion protein, P10686
T1 chain: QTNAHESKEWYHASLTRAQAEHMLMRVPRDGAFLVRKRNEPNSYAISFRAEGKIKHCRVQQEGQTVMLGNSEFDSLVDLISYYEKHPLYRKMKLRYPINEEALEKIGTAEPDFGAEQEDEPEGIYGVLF

Peptide B = molecular target: T2, Peptide B
T2 chain: EQEDEPEGIYGVLF

[4] = molecular target: T3, Itk SH3-Linker (Itk 3Linker), Q03526
T3 chain: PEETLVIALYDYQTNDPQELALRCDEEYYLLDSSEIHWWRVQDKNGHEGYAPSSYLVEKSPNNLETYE

PLCγ1 -Y783-SH3, P10686 = molecular target: T4, PLCγ1 -Y783-SH3, P10686
T4 chain: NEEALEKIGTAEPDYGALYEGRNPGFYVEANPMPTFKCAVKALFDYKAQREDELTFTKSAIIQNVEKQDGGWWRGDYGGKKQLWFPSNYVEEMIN

[5] = molecular target: T5, free PLCγ1 SH2C domain, P10686
T5 chain: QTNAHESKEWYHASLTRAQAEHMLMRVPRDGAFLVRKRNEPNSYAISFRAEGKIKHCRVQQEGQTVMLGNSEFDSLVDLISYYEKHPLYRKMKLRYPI

[6] = molecular target: T6, PLCγ1 SH2C -Y783-, P10686
T6 chain: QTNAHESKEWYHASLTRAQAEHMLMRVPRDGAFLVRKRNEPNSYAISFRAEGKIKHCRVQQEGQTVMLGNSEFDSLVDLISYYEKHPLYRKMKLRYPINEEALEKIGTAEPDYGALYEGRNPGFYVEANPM

Itk SH3, Q03526 = molecular target: T7, Itk SH3, Q03526
T7 chain: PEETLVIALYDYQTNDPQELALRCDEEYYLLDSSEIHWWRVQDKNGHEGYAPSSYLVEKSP

[7] = molecular target: N-terminal Phosphatidylinositol 3-Kinase (p85α) SH2 domain (PI3K SH2)
[8] = molecular target: T8, free Itk SH2 domain, Q03526
T8 chain: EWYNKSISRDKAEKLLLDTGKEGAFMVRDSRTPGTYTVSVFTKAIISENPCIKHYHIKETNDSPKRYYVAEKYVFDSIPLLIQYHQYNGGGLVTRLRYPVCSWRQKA

Chain of Grb2 SH2 domain (chain, as listed by the source): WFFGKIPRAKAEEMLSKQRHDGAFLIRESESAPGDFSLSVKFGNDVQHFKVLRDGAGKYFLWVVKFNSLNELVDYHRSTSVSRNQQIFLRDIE

B1: Catalytically inactive (K390R) Itk SH2-kinase domain (2KD) (protein)
chain: EWYNKSISRDKAEKLLLDTGKEGAFMVRDSRTPGTYTVSVFTKAIISENPCIKHYHIKETNDSPKRYYVAEKYVFDSIPLLIQYHQYNGGGLVTRLRYPVCSWRQKAPVTAGLRYGKWVIQPSELTFVQEIGSGQFGLVHLGYWLNRDKVAIKTIQEGAMSEEDFIEEAEVMMKLSHPKLVQLYGVCLEQAPICLVFEFMEHGCLSDYLRSQRGLFAAETLLGMCLDVCEGMAYLEKACVIHRDLAARNCLVGENQVIKVSDFGMTRFVLDDQYTSSTGTKFPVKWASPEVFSFSRYSSKSDVWSFGVLMWEVFSEGKIPYENRSNSEVVEDISTGFRLYKPRLASCHVYQIMNHCWKEKPEDRPPFSQLLSQLAEIAEAGL
Question: How did the “phosphorylation of Itk Y511 by Lck (Btk phosphoY551 antibody blot)” value [1] turn out when B1 was run?
Answer: Lck phosphorylation of the SH2-kinase fragment of Itk proceeds readily

B2: FLAG-tagged Itk kinase domain (Itk KD) (protein)
chain: VIQPSELTFVQEIGSGQFGLVHLGYWLNKDKVAIKTIQEGAMSEEDFIEEAEVMMKLSHPKLVQLYGVCLEQAPICLVFEFMEHGCLSDYLRSQRGLFAAETLLGMCLDVCEGMAYLEKACVIHRDLAARNCLVGENQVIKVSDFGMTRFVLDDQYTSSTGTKFPVKWASPEVFSFSRYSSKSDVWSFGVLMWEVFSEGKIPYENRSNSEVVEDISTGFRLYKPRLASCHVYQIMNHCWKEKPEDRPPFSQLLSQLAEIAEAGL
Question: How did the “phosphorylation of Itk 32 by the isolated Itk kinase domain (anti-pY180 blot)” value [2] turn out when B2 was run?
Answer: The Itk catalytic fragment leads to substrate phosphorylation

B3: Catalytically inactive (K390R) Itk kinase domain (KD) (protein)
chain: B2 chain with K29R
Question: How did the “phosphorylation of Itk Y511 by Lck (Btk phosphoY551 antibody blot)” value [1] turn out when B3 was run?
Answer: phosphorylation of the Itk kinase domain alone (on Y511) by Lck is very inefficient

B4: FLAG-tagged Itk LKD enzyme (protein)
chain: CSWRQKAPVTAGLRYGKWVIQPSELTFVQEIGSGQFGLVHLGYWLNKDKVAIKTIQEGAMSEEDFIEEAEVMMKLSHPKLVQLYGVCLEQAPICLVFEFMEHGCLSDYLRSQRGLFAAETLLGMCLDVCEGMAYLEKACVIHRDLAARNCLVGENQVIKVSDFGMTRFVLDDQYTSSTGTKFPVKWASPEVFSFSRYSSKSDVWSFGVLMWEVFSEGKIPYENRSNSEVVEDISTGFRLYKPRLASCHVYQIMNHCWKEKPEDRPPFSQLLSQLAEIAEAGL
Question: How did the Km [3] turn out when B4 was run?
Answer: 5.64 µM for the SH2-Peptide B fusion

Question: And the “fold increase in substrate affinity against Peptide B alone” value [3]?
Answer: exhibiting a 15-fold increase in substrate affinity

Question: What about the “kcat/Km against Peptide B alone” value [3] of the same protein?
Answer: Peptide B is a better substrate by 7-fold (kat/Km) when tethered to the SH2 domain of PLCγ1

Question: And the Km (Peptide B)?
Answer: 87 µM for Peptide B alone

B5: FLAG-tagged Itk full-length (FLItk) enzyme (protein)
chain: MNNFILLEEQLIKKSQQKRRTSPSNFKVRFFVLTKASLAYFEDRHGKKRTLKGSIELSRIKCVEIVKSDISIPCHYKYPFQTLVYLQVVHDNYLLYVFAPDCESRQRWVLTLKEETRNNNSLVSKYHPNFWMDGRWRCCSQLEKPAVGCAPYDPSKNASKKPLPPTPEDNRRSFQEPEETLVIALYDYQTNDPQELALRCDEEYYLLDSSEIHWWRVQDKNGHEGYAPSSYLVEKSPNNLETYEWYNKSISRDKAEKLLLDTGKEGAFMVRDSRTPGTYTVSVFTKAIISENPCIKHYHIKETNDSPKRYYVAEKYVFDSIPLLIQYHQYNGGGLVTRLRYPVCSWRQKAPVTAGLRYGKWVIQPSELTFVQEIGSGQFGLVHLGYWLNKDKVAIKTIQEGAMSEEDFIEEAEVMMKLSHPKLVQLYGVCLEQAPICLVFEFMEHGCLSDYLRSQRGLFAAETLLGMCLDVCEGMAYLEKACVIHRDLAARNCLVGENQVIKVSDFGMTRFVLDDQYTSSTGTKFPVKWASPEVFSFSRYSSKSDVWSFGVLMWEVFSEGKIPYENRSNSEVVEDISTGFRLYKPRLASCHVYQIMNHCWKEKPEDRPPFSQLLSQLAEIAEAGL
Question: With B5 as the protein, how does the “phosphorylation of Itk 32 and PLCγ1 SH2C -Y783- by full-length Itk” value (Grb2 SH2 domain) read?
Answer: two different control SH2 domains (derived from PI3K and Grb2) do not inhibit the phosphorylation of the substrates even at large molar excess

Question: And the “phosphorylation on Y180 in an in vitro kinase assay” value (shortened to “phosphorylation on Y180”) [2]?
Answer: only substrates that contain both the site of phosphorylation (Y180 for Itk, Y187 for Tec, Y223 for Btk, and Y783 for PLCγ1) and the adjacent SH2 domain are phosphorylated by the Tec kinases

Question: What about the “phosphorylation on Y180” value [4] of the same protein?
Answer: Only Itk fragments that contain the SH2 domain and Y180 are phosphorylated by Itk

Question: And the “phosphorylation on Y783 in an in vitro kinase assay” value (PLCγ1 -Y783-SH3, P10686)?
Answer: is not phosphorylated by full length Itk

Question: What about the “phosphorylation of PLCγ1 SH2C -Y783- substrate by full-length Itk (anti-pY783 blot)” value [5] of the same protein?
Answer: The PLCγ1 SH2 domain competes with the PLCγ1 substrate in a similar manner

Question: And the “phosphorylation on Y783 in an in vitro kinase assay” value [6]?
Answer: only substrates that contain both the site of phosphorylation (Y180 for Itk, Y187 for Tec, Y223 for Btk, and Y783 for PLCγ1) and the adjacent SH2 domain are phosphorylated by the Tec kinases

Question: What about the “phosphorylation on Y180” value (Itk SH3, Q03526) of the same protein?
Answer: the isolated SH3 domain does not serve as a substrate for full length Itk

Question: And the “phosphorylation of Itk 32 and PLCγ1 SH2C -Y783- by full-length Itk” value [7]?
Answer: two different control SH2 domains (derived from PI3K and Grb2) do not inhibit the phosphorylation of the substrates even at large molar excess

Question: What about the “autophosphorylation of Tyr 180 within full length Itk” value [8] of the same protein?
Answer: autophosphorylation at this site is greatly diminished upon addition of free Itk SH2 domain

Question: What about the “initial velocity of peptide B phosphorylation by full length Itk” value [8] of the same protein?
Answer: do not change significantly with increasing concentrations of Itk SH2 domain

Question: And the “phosphorylation of Itk 32 substrate on Y180 by full-length Itk (anti-pY180 blot)” value [8]?
Answer: free Itk SH2 domain competes with the Itk 32 substrate

B6: FLAG-tagged Tec full-length enzyme (enzyme, UniProt P42680 1-631, looked up, species assumed)
chain: MNFNTILEEILIKRSQQKKKTSPLNYKERLFVLTKSMLTYYEGRAEKKYRKGFIDVSKIKCVEIVKNDDGVIPCQNKYPFQVVHDANTLYIFAPSPQSRDLWVKKLKEEIKNNNNIMIKYHPKFWTDGSYQCCRQTEKLAPGCEKYNLFESSIRKALPPAPETKKRRPPPPIPLEEEDNSEEIVVAMYDFQAAEGHDLRLERGQEYLILEKNDVHWWRARDKYGNEGYIPSNYVTGKKSNNLDQYEWYCRNMNRSKAEQLLRSEDKEGGFMVRDSSQPGLYTVSLYTKFGGEGSSGFRHYHIKETTTSPKKYYLAEKHAFGSIPEIIEYHKHNAAGLVTRLRYPVSVKGKNAPTTAGFSYEKWEINPSELTFMRELGSGLFGVVRLGKWRAQYKVAIKAIREGAMCEEDFIEEAKVMMKLTHPKLVQLYGVCTQQKPIYIVTEFMERGCLLNFLRQRQGHFSRDVLLSMCQDVCEGMEYLERNSFIHRDLAARNCLVSEAGVVKVSDFGMARYVLDDQYTSSSGAKFPVKWCPPEVFNYSRFSSKSDVWSFGVLMWEVFTEGRMPFEKYTNYEVVTMVTRGHRLYQPKLASNYVYEVMLRCWQEKPEGRPSFEDLLRTIDELVECEETFGR
modifications: full-length FLAG tag
Question: B6 was tested. Which “phosphorylation on Y187 in an in vitro kinase assay” value (Tec SH3) did it give?
Answer: are not phosphorylated by the Tec and Btk kinases

Question: What about the “phosphorylation on Y187 in an in vitro kinase assay” value (Tec SH3-SH2 (Tec 32)) of the same protein?
Answer: only substrates that contain both the site of phosphorylation (Y180 for Itk, Y187 for Tec, Y223 for Btk, and Y783 for PLCγ1) and the adjacent SH2 domain are phosphorylated by the Tec kinases
